Reference: the supplement of paper PMC9732359
± gives the uncertainty stated by the source.

test: protein stability index of a GFP-peptide fusion (yeast GPS) (PSI 1-4); higher = more stable; sorted into four equal gates, so the index is relative within each strain; conditions: doa10∆
How it was run: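 For each peptide, the protein stability index sums the read frequency in every gate after multiplying it by the gate number. Read frequencies came from plasmids that were PCR-amplified from each gate and Illumina-sequenced, with reads assigned to strains by barcodes. The gates were four equal bins of GFP/Cherry fluorescence ratio applied to mid-log yeast in leucine-free medium carrying a pooled library of tiled 17-residue yeast protein peptides fused downstream of GFP on a Cherry-expressing plasmid.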

In order of rising protein stability index:
1. SEKKDTDGADENVQIGE [SRB4]  2.65 ± 0.12
2. SEKGFSKEQIHGSIIIL [YCS4]  2.71 ± 0.12
3. SEVGDAFIFGLQDELKE [SMC3]  3.2 ± 0.067

same assay, conditions: pdr5∆

In order of rising protein stability index:
1. RPYGVGLLIIGYDKSGA [PRE5]  1.08 ± 0.14
2. RMVRSIMWQLLDGVSYL [SSN3]  1.26 ± 0.1
3. RITKSNEKSQAEQEKAK [LRP1]  1.33 ± 0.067
4. RNNSKSVLLKKLGSVRV [SRP72]  1.33 ± 0.11
5. RLQFAQGSVRRLTVSAR [QCR2]  1.39 ± 0.13
6. RPLQKIMLLQLELGSCF [SIN4]  1.54 ± 0.065
7. RIHRLARYYRTVAVLPP [RPS13]  1.8 ± 0.06
8. RKDKDAKFRLILIESRI [RPS13]  1.82 ± 0.12
9. RFVMPNQLLAALVAYTP [RRP6]  1.84 ± 0.045
10. RLLAKDAMIAQRSKKIQ [DIS3]  1.92 ± 0.091
11. RIHVNPSYYGVRDTSPH [BRR2]  1.93 ± 0.072
12. RGAWGKPHGLAARVDIG [RPL10]  1.99 ± 0.04
13. RNSVKLLSKLLLKHPFK [YCS4]  2.1 ± 0.038
14. RNESLKNNSSIRNVIMS [SRB8]  2.11 ± 0.049
15. RKIKRLEKFLQGRDTSK [SRP72]  2.16 ± 0.059
16. RFYELEESLTVLNCLRT [YJR042W/NUP85]  2.25 ± 0.12
17. RQILFKYPMYMQLEEEL [MED6]  2.25 ± 0.069
18. RFRGKRVVYLKHLEDNT [RPL6A]  2.37 ± 0.053
19. RILKNVSPNDNNSANNN [YMR153W/NUP53]  2.42 ± 0.048
20. RKEWFDIKAPSTFENRN [RPS1A]  2.46 ± 0.07
21. RILNFFDKNTKTTPNTA [YMR153W/NUP53]  2.53 ± 0.055
22. RITDASLFQLSKLGKNL [GRR1]  2.55 ± 0.05
23. RLQQQQAQAQAQANNNN [GAL11]  2.55 ± 0.078
24. RQVYKPVLDNPFTNEAH [POP3]  2.67 ± 0.067
25. RLANLIDYKLRVLTQDG [SMB1]  2.69 ± 0.08
26. RINSTDEDLHEFQIEDA [SRB8]  2.87 ± 0.078
27. RLAEFKRRKLDLNNAVQ [SMC4]  2.87 ± 0.12
28. RQLAGAIGYEPLSLTHR [DIS3]  2.87 ± 0.057
29. RQGRSNRRGMLALSGTS [SNF5]  2.97 ± 0.057
30. RGTDIDRINYTETALMN [SRB5]  2.98 ± 0.11
31. RHIKSKHEDLSLEQRQE [RPN4]  3.05 ± 0.086
32. RIGVLQARMMQQQSADH [NSL1]  3.06 ± 0.057
33. RMKQYLKTKLLEEVEGS [RPB7]  3.09 ± 0.1
34. RNARAARAAKIAPRPLD [RPL13B]  3.11 ± 0.09
35. RKPMGKRINFEKIKDIH [POP1]  3.12 ± 0.05
36. RNQRKGAGSIFTSHTRL [RPL2A]  3.12 ± 0.067
37. RGKDGKLHVAAKLPGHK [YGL100W/SEH1]  3.13 ± 0.14
38. RQGLIHQGSGGSVMSAS [SMC3]  3.14 ± 0.062
39. RIANIEQNHLDNNYNTA [YDL088C/ASM4]  3.18 ± 0.071
40. RKTLKEKAIPKDQRATT [RPO26]  3.18 ± 0.064
41. RIKEMYWKLWIDEPFNL [FAS1]  3.25 ± 0.078
42. RHTTGTGRMRYLKHVSR [RPL37A]  3.26 ± 0.081
43. RQSKSSGKSNTSNDASN [ITC1]  3.28 ± 0.08
44. RGVTKVGFGESNFTSII [SMC1]  3.33 ± 0.11
45. RFSPDEDFEHNNLSSMN [MCD1]  3.35 ± 0.18
46. RLLEKSELPDIYSRDIG [SNF2]  3.37 ± 0.13
47. RLGSEADAKAFLDSMAQ [FAS2]  3.44 ± 0.081
48. RNLDSATLKEIKSIIEQ [SMC3]  3.51 ± 0.087
